Data taken from article PMC6691574.

B1: CD36: S468A (protein)
parent chain: MGCDRNCGLIAGAVIGAVLAVFGGILMPVGDLLIQKTIKKQVVLEEGTIAFKNWVKTGTEVYRQFWIFDVQNPQEVMMNSSNIQVKQRGPYTYRVRFLAKENVTQDAEDNTVSFLQPNGAIFEPSLSVGTEADNFTVLNLAVAAASHIYQNQFVQMILNSLINKSKSSMFQVRTLRELLWGYRDPFLSLVPYPVTTTVGLFYPYNNTADGVYKVFNGKDNISKVAIIDTYKGKRNLSYWESHCDMINGTDAASFPPFVEKSQVLQFFSSDICRSIYAVFESDVNLKGIPVYRFVLPSKAFASPVENPDNYCFCTEKIISKNCTSYGVLDISKCKEGRPVYISLPHFLYASPDVSEPIDGLNPNEEEHRTYLDIEPITGFTLQFAKRLQVNLLVKPSEKIQVLKNLKRNYIVPILWLNETGTIGDEKANMFRSQVTGKINLLGLIEMILLSVGVVMFVAFMISYCACRSKTIK
B2: CD36: T470A (protein)
parent chain: MGCDRNCGLIAGAVIGAVLAVFGGILMPVGDLLIQKTIKKQVVLEEGTIAFKNWVKTGTEVYRQFWIFDVQNPQEVMMNSSNIQVKQRGPYTYRVRFLAKENVTQDAEDNTVSFLQPNGAIFEPSLSVGTEADNFTVLNLAVAAASHIYQNQFVQMILNSLINKSKSSMFQVRTLRELLWGYRDPFLSLVPYPVTTTVGLFYPYNNTADGVYKVFNGKDNISKVAIIDTYKGKRNLSYWESHCDMINGTDAASFPPFVEKSQVLQFFSSDICRSIYAVFESDVNLKGIPVYRFVLPSKAFASPVENPDNYCFCTEKIISKNCTSYGVLDISKCKEGRPVYISLPHFLYASPDVSEPIDGLNPNEEEHRTYLDIEPITGFTLQFAKRLQVNLLVKPSEKIQVLKNLKRNYIVPILWLNETGTIGDEKANMFRSQVTGKINLLGLIEMILLSVGVVMFVAFMISYCACRSKTIK
B3: CD36: S468A/T470A (protein)
parent chain: MGCDRNCGLIAGAVIGAVLAVFGGILMPVGDLLIQKTIKKQVVLEEGTIAFKNWVKTGTEVYRQFWIFDVQNPQEVMMNSSNIQVKQRGPYTYRVRFLAKENVTQDAEDNTVSFLQPNGAIFEPSLSVGTEADNFTVLNLAVAAASHIYQNQFVQMILNSLINKSKSSMFQVRTLRELLWGYRDPFLSLVPYPVTTTVGLFYPYNNTADGVYKVFNGKDNISKVAIIDTYKGKRNLSYWESHCDMINGTDAASFPPFVEKSQVLQFFSSDICRSIYAVFESDVNLKGIPVYRFVLPSKAFASPVENPDNYCFCTEKIISKNCTSYGVLDISKCKEGRPVYISLPHFLYASPDVSEPIDGLNPNEEEHRTYLDIEPITGFTLQFAKRLQVNLLVKPSEKIQVLKNLKRNYIVPILWLNETGTIGDEKANMFRSQVTGKINLLGLIEMILLSVGVVMFVAFMISYCACRSKTIK

What was measured:
[1] = Nile red staining after PA, SGC 7901; settings: glycan lost; control: wild-type CD36
[2] = fluorescent FA uptake kit, time course, SGC 7901; settings: glycan lost; control: wild-type CD36

Row | Protein | other: transport activity [1] | other: transport activity [2]
1 | B1 | decreases | decreases
2 | B2 | decreases | decreases
3 | B3 | decreases | decreases
